Results taken from paper PMC2756588.
Values joined by “and” are separate entries in the source; they are usually repeats but may differ in a detail not shown here. Identical values can stand only once.

Key:
Test in all cases: SPOT array
Myo3, P36006 = settings: median of control spots 468
Hse1, P38753 = target: T1, Hse1, P38753; settings: median of control spots 1727
T1 sequence (P38753 208-285, looked up): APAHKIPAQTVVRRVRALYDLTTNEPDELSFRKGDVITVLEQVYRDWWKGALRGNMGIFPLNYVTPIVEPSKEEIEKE

Sho1, P40073 = settings: median of control spots 1148
Bem1-1, P29366 = settings: median of control spots 4282
Fus1, P11710 = target: T2, Fus1, P11710; settings: median of control spots 1200
T2 sequence (P11710 432-512, looked up): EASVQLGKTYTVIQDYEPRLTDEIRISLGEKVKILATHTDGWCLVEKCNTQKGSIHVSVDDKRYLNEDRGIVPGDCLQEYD

Sla1-3, P32790 = target: T3, Sla1-3, P32790; settings: median of control spots 5475
T3 sequence (P32790 344-424, looked up): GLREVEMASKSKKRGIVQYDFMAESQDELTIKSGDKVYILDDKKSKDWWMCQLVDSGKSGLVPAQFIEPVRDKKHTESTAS

Bem1-2, P29366 = settings: median of control spots 4347
Rvs167, P39743 = settings: median of control spots 2707
Cdc25, P04821 = target: T4, Cdc25, P04821; settings: median of control spots 969
T4 sequence (P04821 50-136, looked up): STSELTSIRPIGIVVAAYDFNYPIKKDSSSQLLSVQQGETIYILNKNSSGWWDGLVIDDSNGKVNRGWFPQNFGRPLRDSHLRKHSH

Lsb3, P43603 = target: T5, Lsb3, P43603; settings: median of control spots 406
T5 sequence (P43603 385-451, looked up): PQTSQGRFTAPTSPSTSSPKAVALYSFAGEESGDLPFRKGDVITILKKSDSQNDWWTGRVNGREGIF

Bud14, P27637 = target: T6, Bud14, P27637; settings: median of control spots 956
T6 sequence (P27637 247-328, looked up): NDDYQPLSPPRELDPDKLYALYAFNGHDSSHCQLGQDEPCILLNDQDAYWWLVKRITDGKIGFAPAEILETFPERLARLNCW

Bbc1, P47068 = target: T7, Bbc1, P47068; settings: median of control spots 796
T7 sequence (P47068 1-78, looked up): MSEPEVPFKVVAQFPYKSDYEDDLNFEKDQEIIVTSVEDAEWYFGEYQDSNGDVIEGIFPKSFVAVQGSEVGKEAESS

Boi1, P38041 = target: T8, Boi1, P38041; settings: median of control spots 1162
T8 sequence (P38041 1-86, looked up): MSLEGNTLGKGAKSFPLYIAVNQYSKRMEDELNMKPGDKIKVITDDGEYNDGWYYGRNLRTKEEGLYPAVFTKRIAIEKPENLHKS

Hof1, Q05080 = target: T9, Hof1, Q05080; settings: median of control spots 4086
T9 sequence (Q05080 590-669, looked up): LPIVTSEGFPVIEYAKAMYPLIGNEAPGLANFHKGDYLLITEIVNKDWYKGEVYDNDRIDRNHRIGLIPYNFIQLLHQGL

Abp1, P15891 = target: T10, Abp1, P15891; settings: median of control spots 935
T10 sequence (P15891 535-592, looked up): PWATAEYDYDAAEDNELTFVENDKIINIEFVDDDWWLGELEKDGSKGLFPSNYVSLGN

Bzz1-2, P38822 = target: T11, Bzz1-2, P38822; settings: median of control spots 4538
T11 sequence (P38822 568-633, looked up): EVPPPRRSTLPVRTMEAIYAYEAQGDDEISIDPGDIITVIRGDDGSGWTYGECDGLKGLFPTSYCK

GST = settings: median of control spots 978
Myo5, Q04439 = target: T12, Myo5, Q04439; settings: median of control spots 471
T12 sequence (Q04439 1072-1160, looked up): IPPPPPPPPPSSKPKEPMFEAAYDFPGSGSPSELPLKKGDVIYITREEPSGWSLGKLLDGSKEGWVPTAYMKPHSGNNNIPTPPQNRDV

Boi2, P39969 = target: T13, Boi2, P39969; settings: median of control spots 1161
T13 sequence (P39969 32-116, looked up): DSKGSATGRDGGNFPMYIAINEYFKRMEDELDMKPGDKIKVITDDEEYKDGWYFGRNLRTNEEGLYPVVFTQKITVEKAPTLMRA

Bzz1-1, P38822 = target: T14, Bzz1-1, P38822; settings: median of control spots 4446
T14 sequence (P38822 478-572, looked up): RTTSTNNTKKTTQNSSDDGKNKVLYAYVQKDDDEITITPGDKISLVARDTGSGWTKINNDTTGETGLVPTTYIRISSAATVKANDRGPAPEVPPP

Lsb4, P32793 = target: T15, Lsb4, P32793; settings: median of control spots 397
T15 sequence (P32793 402-468, looked up): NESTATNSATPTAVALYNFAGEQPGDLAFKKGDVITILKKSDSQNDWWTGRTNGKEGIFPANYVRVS

Cyk3, Q07533 = target: T16, Cyk3, Q07533; settings: median of control spots 1451
T16 sequence (Q07533 1-83, looked up): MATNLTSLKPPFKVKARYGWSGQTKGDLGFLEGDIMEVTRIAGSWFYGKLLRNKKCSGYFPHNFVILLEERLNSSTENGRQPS

Pex13, P80667 = target: T17, Pex13, P80667; settings: median of control spots 1341
T17 sequence (P80667 295-386, looked up): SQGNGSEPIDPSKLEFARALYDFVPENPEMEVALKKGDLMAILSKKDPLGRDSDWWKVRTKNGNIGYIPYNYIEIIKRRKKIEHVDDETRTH

Pin3, Q06449 = target: T18, Pin3, Q06449; settings: median of control spots 2171
T18 sequence (Q06449 53-122, looked up): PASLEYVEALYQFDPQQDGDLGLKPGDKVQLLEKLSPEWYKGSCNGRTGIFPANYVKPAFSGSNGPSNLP

Sla1-2, P32790 = target: T19, Sla1-2, P32790; settings: median of control spots 712
T19 sequence (P32790 60-140, looked up): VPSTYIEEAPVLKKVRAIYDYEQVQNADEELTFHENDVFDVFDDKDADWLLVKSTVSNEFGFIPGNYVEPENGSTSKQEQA

Nbp2, Q12163 = target: T20, Nbp2, Q12163; settings: median of control spots 357
T20 sequence (Q12163 103-180, looked up): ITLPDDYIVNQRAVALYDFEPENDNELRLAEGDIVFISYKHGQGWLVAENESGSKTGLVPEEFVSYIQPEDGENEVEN

Lsb1, P53281 = target: T21, Lsb1, P53281; settings: median of control spots 388
T21 sequence (P53281 45-122, looked up): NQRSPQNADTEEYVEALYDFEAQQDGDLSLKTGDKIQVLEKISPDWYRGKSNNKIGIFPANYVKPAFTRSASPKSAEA

Chain of Rvs167, P39743 (P39743 419-482): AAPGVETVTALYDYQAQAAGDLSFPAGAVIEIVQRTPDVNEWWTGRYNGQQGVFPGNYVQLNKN
Chain of Sho1, P40073 (P40073 287-367): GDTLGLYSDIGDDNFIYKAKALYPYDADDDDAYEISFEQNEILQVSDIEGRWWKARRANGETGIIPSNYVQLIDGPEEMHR
Chain of Bem1-1, P29366 (P29366 55-141): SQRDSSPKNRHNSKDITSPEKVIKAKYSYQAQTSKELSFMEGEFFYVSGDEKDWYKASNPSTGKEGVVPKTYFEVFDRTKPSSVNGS
Chain of Bem1-2, P29366 (P29366 139-227): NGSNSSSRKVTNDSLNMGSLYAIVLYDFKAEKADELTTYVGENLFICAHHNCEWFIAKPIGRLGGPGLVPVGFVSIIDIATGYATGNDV

Row | Binder | SPOT intensity (Myo3, P36006) | SPOT intensity (Hse1, P38753) | SPOT intensity (Sho1, P40073) | SPOT intensity (Bem1-1, P29366) | SPOT intensity (Fus1, P11710) | SPOT intensity (Sla1-3, P32790) | SPOT intensity (Bem1-2, P29366) | SPOT intensity (Cdc25, P04821) | SPOT intensity (Bud14, P27637) | SPOT intensity (Bbc1, P47068) | SPOT intensity (Boi1, P38041) | SPOT intensity (Hof1, Q05080) | SPOT intensity (Abp1, P15891) | SPOT intensity (Bzz1-2, P38822) | SPOT intensity (Myo5, Q04439) | SPOT intensity (Boi2, P39969) | SPOT intensity (Lsb4, P32793) | SPOT intensity (Cyk3, Q07533) | SPOT intensity (Pex13, P80667) | SPOT intensity (Pin3, Q06449) | also measured
1 | SPAPIVPREPLRNEP | 122 and 104 | 2790 and 3860 | 138 and 78 | 3190 and 3200 | 227 and 99 | 3540 and 3050 | 2910 and 3310 | 240 and 142 | 184 and 188 | 49 and 40 | 45 and 64 | 1550 and 3190 | 122 and 106 | 4030 and 3640 | 88 and 90 | 28 and 50 | 114 and 89 | 241 and 231 | 403 and 875 | 721 and 289 | SPOT intensity (Rvs167, P39743): 2590 and 3300; SPOT intensity (Lsb3, P43603): 46 and 25; SPOT intensity (GST): 1000 and 337; SPOT intensity (Bzz1-1, P38822): 3070 and 3750
2 | PLQSKIPMLPSRRTM | 102 | 3 | 21 | 1 | 0 | 0 | 0 | 0 | 0 | 29 | 0 | 186 | 124 | 0 | 35 | 0 | 960 | 2 | 329 | 280 | SPOT intensity (Sla1-2, P32790): 14; SPOT intensity (Rvs167, P39743): 1570; SPOT intensity (Lsb3, P43603): 635; SPOT intensity (Nbp2, Q12163): 12; SPOT intensity (GST): 0; SPOT intensity (Bzz1-1, P38822): 0; SPOT intensity (Lsb1, P53281): 396
3 | RHLKNIPRIPIFSIL | 14 and 19 | 307 and 687 | 160 and 101 | 823 and 2170 | 1870 and 1460 | 992 and 402 | 4830 and 2260 | 230 and 113 | 16 and 18 | 25 and 23 | 14 and 10 | 5560 and 3670 | 49 and 31 | 394 and 164 | 5 and 3 | 3 and 1 | 4 and 7 | 1 and 3 | 163 and 113 | 84 | SPOT intensity (Sla1-2, P32790): 0; SPOT intensity (Nbp2, Q12163): 184 and 63
